Measured values from patent US20160031998A1 (CSL, published 2016).
Positions count from the first letter of the chain named.

Tests used:
[1] = molecular target: T1, human G-CSFR expressed on cells (Homo sapiens, UniProt Q99062 25-836); test: cell-based or functional assay
T1 sequence: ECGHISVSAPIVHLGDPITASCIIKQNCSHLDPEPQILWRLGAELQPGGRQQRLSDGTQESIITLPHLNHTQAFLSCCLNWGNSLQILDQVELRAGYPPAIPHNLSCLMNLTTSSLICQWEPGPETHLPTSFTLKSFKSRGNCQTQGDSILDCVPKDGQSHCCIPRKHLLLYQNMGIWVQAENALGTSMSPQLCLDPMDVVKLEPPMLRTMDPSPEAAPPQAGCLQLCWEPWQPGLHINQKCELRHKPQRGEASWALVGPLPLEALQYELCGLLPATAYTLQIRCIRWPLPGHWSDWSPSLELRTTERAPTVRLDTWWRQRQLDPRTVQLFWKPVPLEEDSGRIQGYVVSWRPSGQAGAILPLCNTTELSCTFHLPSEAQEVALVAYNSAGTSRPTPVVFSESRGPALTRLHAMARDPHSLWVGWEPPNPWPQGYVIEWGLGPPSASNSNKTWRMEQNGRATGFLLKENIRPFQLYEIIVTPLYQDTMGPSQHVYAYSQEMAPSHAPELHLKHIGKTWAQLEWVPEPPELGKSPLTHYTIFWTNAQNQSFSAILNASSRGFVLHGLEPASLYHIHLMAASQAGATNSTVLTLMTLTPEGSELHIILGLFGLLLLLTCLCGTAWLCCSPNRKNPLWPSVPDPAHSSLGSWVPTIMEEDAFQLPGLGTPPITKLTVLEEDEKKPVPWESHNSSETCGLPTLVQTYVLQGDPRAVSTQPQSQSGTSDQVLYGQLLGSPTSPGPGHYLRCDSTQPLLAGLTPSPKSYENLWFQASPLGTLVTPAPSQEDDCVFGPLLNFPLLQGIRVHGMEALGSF

[2] = molecular target: T1, human G-CSFR expressed on cells; test: cell-based or functional assay; remark: listed apart in the source
[3] = molecular target: T2, wild type hG-CSFR (soluble, corresponding extracellular domains of the wild type receptor) (Homo sapiens, UniProt Q99062 25-335); test: SPR (Biacore), mAb captured by anti-Fc, soluble wild type receptor injected
T2 construct: also called wt hG-CSFR
T2 sequence: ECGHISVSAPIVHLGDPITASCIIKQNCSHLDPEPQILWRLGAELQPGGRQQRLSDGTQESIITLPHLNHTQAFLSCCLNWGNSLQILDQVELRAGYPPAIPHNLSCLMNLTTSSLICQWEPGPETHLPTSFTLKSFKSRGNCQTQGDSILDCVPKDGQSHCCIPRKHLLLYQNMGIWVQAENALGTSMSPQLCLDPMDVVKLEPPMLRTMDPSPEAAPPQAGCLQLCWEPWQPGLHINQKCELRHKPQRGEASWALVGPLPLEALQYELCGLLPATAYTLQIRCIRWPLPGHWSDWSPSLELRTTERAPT

[4] = molecular target: T1, human G-CSFR expressed on cells; test: binding to BaF3 cells expressing hG-CSFR; method not described; hG-CSFR on the cell surface of BaF3 cells
[5] = molecular target: T3, soluble hG-CSFR: amino acids 25-335 of Homo sapiens G-CSFR with mutations C78A, C163S and C228S and a … (Homo sapiens, UniProt Q99062 25-335); test: SPR (Biacore 2000), receptor immobilised on CM5 chip, Fab in solution
T3 chain: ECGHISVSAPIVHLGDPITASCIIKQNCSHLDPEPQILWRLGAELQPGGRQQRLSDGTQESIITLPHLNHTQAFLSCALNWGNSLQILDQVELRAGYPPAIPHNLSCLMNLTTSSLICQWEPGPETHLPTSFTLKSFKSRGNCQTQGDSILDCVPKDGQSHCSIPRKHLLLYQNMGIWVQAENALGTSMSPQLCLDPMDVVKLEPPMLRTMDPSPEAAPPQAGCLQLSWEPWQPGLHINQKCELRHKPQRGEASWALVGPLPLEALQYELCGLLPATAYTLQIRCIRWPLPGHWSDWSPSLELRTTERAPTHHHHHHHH
Protocol: (§1) Duplicate biosensor analysis of the Fab were performed using a Biacore 2000 (GE, Sweden) with a doubling dilution of Fab antibodies (100 nM to 0.39 nM in 0.1 mg/ml BSA) at a flow rate of 30 μl/min. Binding (100 μl) was monitored to respective flow cells containing control immobilised blank, immobilized cyno G-CSFR-Fc, immobilized human G-CSFR-Fc and immobilized human G-CSFR. Receptor proteins (20 μg per ml in 20 mM Sodium Acetate pH 4.5) were previously immobilized to a CM5 chip using a NHS/EDC coupling kit as per the manufacturer's instructions (Biacore GE, Sweden). Target immobilization values were set at 700, 700 and 500 resonance units for cyno G-CSFR-Fc, hG-CSFR-Fc and hG-CSFR, respectively. Chip immobilisation was quenched with 50 mM ethanolamine pH 8.0. Dissociation of surface binding was monitored for 1000 seconds prior to desorption of the remaining complex using 50 mM Phosphoric acid. Reference binding was then subtracted from the control channel and kinetics generated using biaevaluation software on the Biacore 2000.

[6] = molecular target: T4, hG-CSFR-Fc: polypeptide of SEQ ID NO: 1 in which the C-terminal polyhistidine tag is replaced with an Fc … (Homo sapiens, UniProt Q99062 25-335); test: as above
T4 construct: the Fc is not specified; also called human G-CSFR-Fc; hG-CSFR-Fc fusion
T4 chain: T2 sequence with C78A, C163S, C228S
Protocol: as §1

[7] = molecular target: T5, cynoG-CSFR-Fc: corresponding segment of cynomolgus monkey G-CSFR with an Fc sequence attached to its … (Macaca fascicularis, UniProt Q99062 25-335 (human entry)); test: as above
T5 construct: the Fc is not specified; also called cynomolgus monkey G-CSFR-Fc
T5 chain: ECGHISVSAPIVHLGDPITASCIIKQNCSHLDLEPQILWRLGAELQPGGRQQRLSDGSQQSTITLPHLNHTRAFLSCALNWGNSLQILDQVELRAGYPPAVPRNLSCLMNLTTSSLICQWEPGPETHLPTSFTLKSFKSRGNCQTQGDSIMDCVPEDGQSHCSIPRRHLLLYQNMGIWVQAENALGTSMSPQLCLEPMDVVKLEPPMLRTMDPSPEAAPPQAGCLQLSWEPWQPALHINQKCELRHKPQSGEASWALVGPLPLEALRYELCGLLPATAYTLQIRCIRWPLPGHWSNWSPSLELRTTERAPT
Protocol: as §1

B1: C1.2G (germlined C1.2), human IgG4 (antibody, V domains shown)
VH: EVQLLESGGGLVQPGGSLRLSCAASGFTFSLYWMGWVRQAPGKGLEWVSSISSSGGVTPYADSVKGRFTISRDNSKNTLYLQMNSLRAEDTAVYYCAKLGELGWFDPWGQGTLVTVSS
VL: DIQMTQSPSSLSASVGDRVTITCRASQGISSYLNWYQQKPGKAPKLLIYYASNLQNGVPSRFSGSGSGTDFTLTISSLQPEDFATYYCQQSYSTPLTFGGGTKVEIK
notes: Human IgG4/kappa; also called C1.2 germline mAb; C1.2G (human IgG4)
IC50, inhibition of G-CSF-mediated proliferation of BaF3 cells expressing hG-CSFR (3H-thymidine incorporation) [1]: 0.8 µg/mL
IC50 (nM), inhibition of G-CSF-mediated proliferation of BaF3 cells [2]: 0.32 nM
Kd [3]: 1.4 nM
Kd [4]: 0.257 nM

B2: C1.2 Fab (Fab, V domains shown)
VH: B1 VH with K98M
VL: B1 VL with S10A, V58I, Y87H, K103N, K107R
notes: human Fab (papain digest of the antibody or E. coli expression); also called Fab C1.2
Kd [5]: 0.37 nM
Kd [6]: 0.33 nM
Kd [7]: 0.39 nM
